Consider 38 molecules from US20240376149A1, “Novel Modulators of GABABR1a” (VIB VZW, priority 2021, published 2024).

Assay [1] addresses T1, GABABR1a-SD1 (SD1-FITC-9mer complex) (Homo sapiens, UniProt Q9UBS5).
T1 construct: The synthetic gene encoding for residues 26-96 of the Sushi1 protein was cloned into a pFloat-SUMO vector; His-SUMO (with 3C protease site) (N, cleaved yes); made in house; host or cells: E. coli BL21(DE3)
As to the kind of experiment: Fluorescence polarization (FP) competition assay with FITC-9mer. Type of assay: binding. The settings on record: for inhibition at 50 µM: peptide at 50 μM, inhibition of FITC-9mer binding to SD1; for IC50: competition with FITC-9mer for SD1. The procedure: Intrigued by the surprising results of the 5-mer, it was decided to set up a medium- to high-throughput screen to optimize the 5-mer sequence. Several assays were tested to find a reproducible, robust and cost-effective assay that is also suitable for high-throughput screening. A fluorescence polarization (FP) assay was selected. FP measurements are well-known for receptor binding assays. The assay is based on the rotational movement of fluorescently labelled molecules in solution. […] The FP assay was optimized using the FITC labelled sAPP 9-mer (FIG. 1).
(§1) To screen for GABABR1a binders using unlabelled test compounds, the assay was turned into a competition assay using FITC-9mer. […] To validate this inhibitor assay, the IC50 values were determined of the 17-mer, 9-mer, 5-mer as well as those from 3 negative controls: 10-mer, scrambled 17-mer and a scrambled 9-mer (FIG. 2).
(§2) To determine if the peptides of this application were able to disrupt the SD1-9-mer complex, each peptide (in single point or dose-response curve) tested was incubate with SD1 protein for 1 h at RT. After this initially incubation, FITC-9mer was added to the previous mix and incubated during 2 h at RT. The signal intensity was measure in an appropriate plate reader using the following settings: Number of flashes per well: 200; Excitation: F482-16; Dichroic filter: FLP 504; Emission A F530-40; Gain A: 738, Gain B: 736. The assay was conducted in a 384-well plate.
On the technique in general: Polarisation of emitted light reports the rotation of a fluorescent probe.

Assay [2] addresses T2, Sushi domain 1 of the human GABA B1a receptor (human, UniProt Q9UBS5 26-96).
T2 construct: Purified recombinant protein from E. coli; also called SD1; GABABR1a-SD1
As to the kind of experiment: FP competition vs FITC-9mer on purified SD1. As to the method:
as §1
Based on structural information of DIYWS-SD1 and DIWWS-SD1 co-crystals, 48 peptides containing non-natural residues were manually designed and checked for binding to the GABABR1a SD1 in the FP assay at a concentration of 50 μM. These non-natural peptides were categorized based on the IC50 values obtained in the FP assay (Table 3). […] The listed non-natural 5-mers all share D-aspartate was on position 1 (residue position 4 of the 9-mer), L-isoleucine on position 2 (residue position 5 of the 9-mer), L-tryptophane on position 4 (residue position 7 of the 9-mer) and L-serine on position 5 (residue position 8 of the 9-mer), while position 3 is selected from the list consisting of L-tyrosine, isoethylmethyl-benzene, 6-chloro-3-methyl-1H-indole, methylcyclohexane, ethylcyclohexane, 2-naphthalene, ethylbenzene, 1,1-difluoro-4-cyclohexyl, 4-methyl-1-methoxy-2-methylbenzene, 1-chloro-4-methylbenzene, 4-methylphenyl-methanol, 3-methylbenzoic acid and 4-methylaniline.

Assay [3] concerns the target T2, Sushi domain 1 of the human GABA B1a …. Briefly: FP competition vs FITC-9mer on purified SD1. The procedure: Next, 35 variants of the DVWWG 5-mer peptide containing natural residues were tested in the above described FP assay. The peptides were tested at a concentration of 50 μM.
as §2
The source holds these as a separate data set.

The term inhibition denotes the relative decrease from the control value, in per cent. One may read the IC50 as the concentration at which inhibition is half-maximal.

Read-outs that look alike come from different tables or passages of the source. *1 amine or outer side, *2 acyl side, *3 side chain or, on linkers, in order; H or OH if unused. Where a SMILES comes first, the peptide text is derived from it. Where no end group is shown, it is not given here. [ ]: non-standard residue; d: D form. The star is where a group is joined. X1 = CCn1cc(C[C@H](N[*:1])C(=O)[*:2])c2ccccc21; X3 = COc1ccc(C[C@H](N[*:1])C(=O)[*:2])cc1C; X4 = O=C([C@H](Cc1ccc(CO)cc1)N[*:1])[*:2]; Piperazinyl(4-Me) = CN1CCN(*)CC1; Ac4c = NC1(C(=O)O)CCC1

T2 sequence (Q9UBS5 26-96 limits assumed): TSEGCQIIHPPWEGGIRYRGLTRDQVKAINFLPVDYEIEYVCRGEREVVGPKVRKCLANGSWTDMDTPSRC

In the case of `CC[C@H](C)[C@H](NC(=O)[C@H](N)CC(=O)O)C(=O)N[C@@H](Cc1ccc(O)cc1)C(=O)N[C@@H](Cc1c[nH]c2ccccc12)C(=O)N[C@@H](CO)C(=O)Nc1nncs1` [VIB-0068870], the inhibition at 50 µM in assay [1] was determined as 34.6%. As to `CC[C@H](C)[C@H](NC(=O)[C@H](N)CC(=O)O)C(=O)N[C@@H](Cc1ccc(O)cc1)C(=O)N[C@@H](Cc1c[nH]c2ccccc12)C(=O)N[C@@H](CO)C(=O)NCC(=O)N1CCN(C)CC1` [VIB-0068875] (H-[dD]IYWSG-{Piperazinyl(4-Me)}; N-terminus assumed), in assay [1], the inhibition at 50 µM worked out at 41.8%. The same measure, in the same setting: the figure for `CC[C@H](C)[C@H](NC(=O)[C@@H](CC(=O)O)NC(=O)C1(N)CCC1)C(=O)N[C@@H](Cc1ccc(O)cc1)C(=O)N[C@@H](Cc1c[nH]c2ccccc12)C(=O)N[C@@H](CO)C(=O)O` [VIB-0068884] (H-[Ac4c][dD]IYWS-OH; C-terminus assumed) is 41.5%; for `CC[C@H](C)[C@H](NC(=O)[C@H](N)CC(=O)O)C(=O)N[C@@H](Cc1ccc(CO)cc1)C(=O)N[C@@H](Cc1c[nH]c2ccccc12)C(=O)N[C@@H](CO)C(=O)O` [VIB-0068896] (H-[dD]I[X4]WS-OH; N-terminus and C-terminus assumed) it is 56.6%.

Take `CC[C@H](C)[C@H](NC(=O)[C@H](N)CC(=O)O)C(=O)N[C@@H](Cc1ccc(O)cc1)C(=O)N[C@@H](Cc1c[nH]c2ccccc12)C(=O)N[C@@H](CO)C(=O)O` [VIB-0068902, dIYWS]: in assay [1], the IC50 was found to be 11.6 µM and the inhibition at 50 µM came to 76.8%. For the molecule `CC[C@H](C)[C@H](NC(=O)[C@H](N)CC(=O)O)C(=O)N[C@@H](Cc1cn(CC)c2ccccc12)C(=O)N[C@@H](Cc1c[nH]c2ccccc12)C(=O)N[C@@H](CO)C(=O)O` [VIB-0068904] (H-[dD]I[X1]WS-OH; N-terminus and C-terminus assumed), the inhibition at 50 µM in assay [1] came out at 26.7%. Regarding `CC[C@H](C)[C@H](NC(=O)[C@H](N)CC(=O)O)C(=O)N[C@@H](Cc1ccc(OC)c(C)c1)C(=O)N[C@@H](Cc1c[nH]c2ccccc12)C(=O)N[C@@H](CO)C(=O)O` [VIB-0068906] (H-[dD]I[X3]WS-OH; N-terminus and C-terminus assumed), the inhibition at 50 µM in assay [1] was 70.8%. Same read-out and setting: then `CC[C@H](C)[C@H](NC(=O)[C@H](N)CC(=O)O)C(=O)N[C@@H](Cc1cccc(C(=O)O)c1)C(=O)N[C@@H](Cc1c[nH]c2ccccc12)C(=O)N[C@@H](CO)C(=O)O` [VIB-0068908], with 53.1%; and `CC[C@H](C)[C@H](NC(=O)[C@H](N)CC(=O)O)C(=O)N[C@@H](Cc1ccc(N)cc1)C(=O)N[C@@H](Cc1c[nH]c2ccccc12)C(=O)N[C@@H](CO)C(=O)O` [VIB-0068909], with 44.2%; and `CC[C@H](C)[C@H](NC(=O)[C@H](N)CC(=O)O)C(=O)N[C@@H](Cc1ccc(Cl)cc1)C(=O)N[C@@H](Cc1c[nH]c2ccccc12)C(=O)N[C@@H](CO)C(=O)O` [VIB-0068912], with 66.2%.

With `CC[C@H](C)[C@H](NC(=O)[C@H](N)CC(=O)O)C(=O)N[C@@H](Cc1ccc(O)cc1)C(=O)N[C@@H](Cc1ccc(O)cc1)C(=O)N[C@@H](CO)C(=O)O` [VIB-0068914, dIYYS] (H-[dD]IYYS-OH; N-terminus and C-terminus assumed), in assay [1], the IC50 was 25.1 µM and the inhibition at 50 µM is 72.4%. Consider PVHMS [VIB_P44], for which the inhibition at 50 µM in assay [1] was -7%.

B1: VIB-0068912 (peptide)
peptide: DIXWS
modifications: D-aspartic acid at position 1; position 3 (X) is the non-natural residue F86 = 1-chloro-4-methylbenzene
notes: Peptidomimetic 5-mer; X marks the non-natural residue
With B1, in assay [2], the “% inhibition 50 µM” value worked out at 66.2% and the half-maximal inhibitory concentration (IC50) was 32.7 µM. For PVHMS [VIB_P44], in assay [3], the “% inhibition 50 µM” value is -7% and the IC50 was found to be 186 µM.

B2: VIB-0068909 (peptide)
peptide: DIXWS
modifications: D-aspartic acid at position 1; position 3 (X) is the non-natural residue F57 = 4-methylaniline
notes: as for B1
Consider B2, for which, in assay [2], the “% inhibition 50 µM” value came out at 44.2% and the IC50 was found to be 88.3 µM.

As to [dD]IYWS-{N‑(1,3,4-thiadiazol-2-yl)amide} (also called VIB-0068870-001; dIYWS*) [VIB-0068870], in assay [2], the “% inhibition 50 µM” value amounted to 34.6% and the IC50 was 16.5 µM. SVYWS [VIB_P41]: the “% inhibition 50 µM” value in assay [3] amounted to 5.28%. Regarding DVWWS [VIB_P39], in assay [3], the “% inhibition 50 µM” value worked out at 85.5% and the IC50 turned out to be 14 µM. For [dD]IYYS (also called dIYYS) [VIB-0068914], the “% inhibition 50 µM” value in assay [2] was 72.4%.

With DIHWS [VIB_P37], in assay [3], the “% inhibition 50 µM” value turned out to be 20% and the IC50 came to 35.6 µM. As to GVYWS [VIB_P60], in assay [3], the “% inhibition 50 µM” value was 47.5%. As to {(1-aminocyclobutyl)N‑methanone}-[dD]IYWS (not fully specified, also called *dIYWS) [VIB-0068884], in assay [2], the “% inhibition 50 µM” value worked out at 41.5% and the IC50 came out at 100 µM. Turning to NIWWG [VIB_P65], the “% inhibition 50 µM” value in assay [3] was 41.4%. For the molecule [dD]IYWS-{N‑(2-(4-methylpiperazin-1-yl)-2-oxoethyl)amide} (also called dIYWS**) [VIB-0068875], in assay [2], the “% inhibition 50 µM” value was determined as 41.8% and the IC50 came out at 71.2 µM. For the molecule NIYWS [VIB_P63], the “% inhibition 50 µM” value in assay [3] turned out to be 19.4%. Still for that read-out and setting: the figure for NIWWS [VIB_P66] is 66.4%; for NVWWG [VIB_P56] it is 17.9%. On the same count and under the same terms, the figure for NVWWS [VIB_P48] is 33.5%; for NFYWS [VIB_P58] it is -7%. For [dD]IYWS (also called dIYWS) [VIB-0068902], in assay [2], the “% inhibition 50 µM” value amounted to 76.8%. As to NIYWG [VIB_P68], the “% inhibition 50 µM” value in assay [3] was determined as 15.9%. Take DIYWS (not fully specified, also called VIB_43; DIYWS) [VIB_P43]: in assay [3], the “% inhibition 50 µM” value is 48.6% and the IC50 came to 21.2 µM. For the molecule DIFWS [VIB_P35], the “% inhibition 50 µM” value in assay [3] was determined as 55.9%. Consider PIYWS [VIB_P49], for which the “% inhibition 50 µM” value in assay [3] was determined as 25%.

On to GIYWS [VIB_P47], for which, in assay [3], the “% inhibition 50 µM” value is 53.4%. On the same count and under the same terms, the figure for DVYWG [VIB_P53] is 33.5%. With DIWWG (also called VIB_29) [VIB_P29], in assay [3], the “% inhibition 50 µM” value is 75% and the IC50 is 16.5 µM. DIYWG [VIB_P42]: the “% inhibition 50 µM” value in assay [3] worked out at 47.9%.
